Source: patent US20230056252A1 (Gilead, published 2023)

B1: huSP34.6.2 Fab-HF (Fab, V domains shown)
VH: EVQLVESGGGLVQPGGSLRLSCAASGFTFSTYAMNWVRQAPGKGLEWVGRIRSKYNNYATYYADSVKGRFTISRDNSKNTLYLQMNSLRAEDTAMYYCVRHGNFGNSYVSWFAVWGQGTLVTVSS
VL: QAVVTQEPSLTVSPGGTVTLTCGSSTGAVTTSNYANWVQQKPGQAPRGLIGGTSNRAPWTPARFSGSLLGGKAALTLSGAQPEDEAEYYCALWYSNLWVFGGGTKLTVL
B2: huSP34.10.6 Fab-HF (Fab, V domains shown)
VH: EVQLVESGGGLVQPGGSLRLSCAASGFTFSDYAMNWVRQAPGKGLEWVGRTRSKYNSYATYYAASVKGRFTISRDDSKNSLYLQMNSLKTEDTAVYYCVRHGNFGHSYVSWFAVWGQGTLVTVSS
VL: QAVVTQPPSLTVSPGGTVTLTCGSSTGAVTTGHYANWVQQKPGQAPRGLIGGTSNRAPGVPARFSGSLSGGKAALTISGAQPEDEAEYYCALWYSARWVFGGGTKLTVL
B3: huSP34.9.6 Fab-HF (Fab, V domains shown)
VH: EVQLVESGGGLVQPGGSLRLSCAASGFTFSDYAMNWVRQAPGKGLEWVGRTRSKYNSYATYYAASVKGRFTISRDDSKNSLYLQMNSLKTEDTAVYYCVRHGNFGNSYVSWFAVWGQGTLVTVSS
VL: QAVVTQPPSLTVSPGGTVTLTCGSSTGAVTTGHYANWVQQKPGQAPRGLIGGTSNRAPGVPARFSGSLSGGKAALTISGAQPEDEAEYYCALWYSARWVFGGGTKLTVL
B4: huSP34.7.6 Fab-HF (Fab, V domains shown)
VH: EVQLVESGGGLVQPGGSLRLSCAASGFTFSDYAMNWVRQAPGKGLEWVGRTRSKYNNYATYYAASVKGRFTISRDDSKNSLYLQMNSLKTEDTAVYYCVRHGNFGNSYVSWFAVWGQGTLVTVSS
VL: QAVVTQPPSLTVSPGGTVTLTCGSSTGAVTTGHYANWVQQKPGQAPRGLIGGTSNRAPGVPARFSGSLSGGKAALTISGAQPEDEAEYYCALWYSARWVFGGGTKLTVL
B5: huSP34.6.6 Fab-HF (Fab, V domains shown)
VH: EVQLVESGGGLVQPGGSLRLSCAASGFTFSTYAMNWVRQAPGKGLEWVGRIRSKYNNYATYYADSVKGRFTISRDNSKNTLYLQMNSLRAEDTAMYYCVRHGNFGNSYVSWFAVWGQGTLVTVSS
VL: QAVVTQPPSLTVSPGGTVTLTCGSSTGAVTTGHYANWVQQKPGQAPRGLIGGTSNRAPGVPARFSGSLSGGKAALTISGAQPEDEAEYYCALWYSARWVFGGGTKLTVL
B6: huSP34.8.1 Fab-HF (Fab, V domains shown)
VH: EVQLVESGGGLVQPGGSLRLSCAASGFTFSDYAMNWVRQAPGKGLEWVGRTRSKYNNYATYYAASVKGRFTISRDDSKNSLYLQMNSLKTEDTAVYYCVRHGNFGHSYVSWFAVWGQGTLVTVSS
VL: QAVVTQEPSLTVSPGGTVTLTCRSSTGAVTTSNYANWVQQKPGQAPRGLIGGTNKRAPWTPARFSGSLIGDKAALTLSGAQPEDEAEYYCALWYSNLWVFGGGTKLTVL
B7: huSP34.8.5 Fab-HF (Fab, V domains shown)
VH: EVQLVESGGGLVQPGGSLRLSCAASGFTFSDYAMNWVRQAPGKGLEWVGRTRSKYNNYATYYAASVKGRFTISRDDSKNSLYLQMNSLKTEDTAVYYCVRHGNFGHSYVSWFAVWGQGTLVTVSS
VL: QAVVTQEPSLTVSPGGTVTLTCGSSTGAVTTGHYANWVQQKPGQAPRGLIGGTSNRAPWTPARFSGSLLGGKAALTLSGAQPEDEAEYYCALWYSARWVFGGGTKLTVL
B8: huSP34.8.6 Fab-HF (Fab, V domains shown)
VH: EVQLVESGGGLVQPGGSLRLSCAASGFTFSDYAMNWVRQAPGKGLEWVGRTRSKYNNYATYYAASVKGRFTISRDDSKNSLYLQMNSLKTEDTAVYYCVRHGNFGHSYVSWFAVWGQGTLVTVSS
VL: QAVVTQPPSLTVSPGGTVTLTCGSSTGAVTTGHYANWVQQKPGQAPRGLIGGTSNRAPGVPARFSGSLSGGKAALTISGAQPEDEAEYYCALWYSARWVFGGGTKLTVL
B9: huSP34.6.4 Fab-HF (Fab, V domains shown)
VH: EVQLVESGGGLVQPGGSLRLSCAASGFTFSTYAMNWVRQAPGKGLEWVGRIRSKYNNYATYYADSVKGRFTISRDNSKNTLYLQMNSLRAEDTAMYYCVRHGNFGNSYVSWFAVWGQGTLVTVSS
VL: QAVVTQEPSLTVSPGGTVTLTCGSSTGAVTTSHYANWVQQKPGQAPRGLIGGTSKRAPWTPARFSGSLLGGKAALTLSGAQPEDEAEYYCALWYSALWVFGGGTKLTVL
B10: huSP34.7.1 Fab-HF (Fab, V domains shown)
VH: EVQLVESGGGLVQPGGSLRLSCAASGFTFSDYAMNWVRQAPGKGLEWVGRTRSKYNNYATYYAASVKGRFTISRDDSKNSLYLQMNSLKTEDTAVYYCVRHGNFGNSYVSWFAVWGQGTLVTVSS
VL: QAVVTQEPSLTVSPGGTVTLTCRSSTGAVTTSNYANWVQQKPGQAPRGLIGGTNKRAPWTPARFSGSLIGDKAALTLSGAQPEDEAEYYCALWYSNLWVFGGGTKLTVL
B11: huSP34.10.1 Fab-HF (Fab, V domains shown)
VH: EVQLVESGGGLVQPGGSLRLSCAASGFTFSDYAMNWVRQAPGKGLEWVGRTRSKYNSYATYYAASVKGRFTISRDDSKNSLYLQMNSLKTEDTAVYYCVRHGNFGHSYVSWFAVWGQGTLVTVSS
VL: QAVVTQEPSLTVSPGGTVTLTCRSSTGAVTTSNYANWVQQKPGQAPRGLIGGTNKRAPWTPARFSGSLIGDKAALTLSGAQPEDEAEYYCALWYSNLWVFGGGTKLTVL
B12: huSP34.10.2 Fab-HF (Fab, V domains shown)
VH: EVQLVESGGGLVQPGGSLRLSCAASGFTFSDYAMNWVRQAPGKGLEWVGRTRSKYNSYATYYAASVKGRFTISRDDSKNSLYLQMNSLKTEDTAVYYCVRHGNFGHSYVSWFAVWGQGTLVTVSS
VL: QAVVTQEPSLTVSPGGTVTLTCGSSTGAVTTSNYANWVQQKPGQAPRGLIGGTSNRAPWTPARFSGSLLGGKAALTLSGAQPEDEAEYYCALWYSNLWVFGGGTKLTVL
B13: huSP34.9.2 Fab-HF (Fab, V domains shown)
VH: EVQLVESGGGLVQPGGSLRLSCAASGFTFSDYAMNWVRQAPGKGLEWVGRTRSKYNSYATYYAASVKGRFTISRDDSKNSLYLQMNSLKTEDTAVYYCVRHGNFGNSYVSWFAVWGQGTLVTVSS
VL: QAVVTQEPSLTVSPGGTVTLTCGSSTGAVTTSNYANWVQQKPGQAPRGLIGGTSNRAPWTPARFSGSLLGGKAALTLSGAQPEDEAEYYCALWYSNLWVFGGGTKLTVL
B14: huSP34.9.1 Fab-HF (Fab, V domains shown)
VH: EVQLVESGGGLVQPGGSLRLSCAASGFTFSDYAMNWVRQAPGKGLEWVGRTRSKYNSYATYYAASVKGRFTISRDDSKNSLYLQMNSLKTEDTAVYYCVRHGNFGNSYVSWFAVWGQGTLVTVSS
VL: QAVVTQEPSLTVSPGGTVTLTCRSSTGAVTTSNYANWVQQKPGQAPRGLIGGTNKRAPWTPARFSGSLIGDKAALTLSGAQPEDEAEYYCALWYSNLWVFGGGTKLTVL
B15: huSP34.10.4 Fab-HF (Fab, V domains shown)
VH: EVQLVESGGGLVQPGGSLRLSCAASGFTFSDYAMNWVRQAPGKGLEWVGRTRSKYNSYATYYAASVKGRFTISRDDSKNSLYLQMNSLKTEDTAVYYCVRHGNFGHSYVSWFAVWGQGTLVTVSS
VL: QAVVTQEPSLTVSPGGTVTLTCGSSTGAVTTSHYANWVQQKPGQAPRGLIGGTSKRAPWTPARFSGSLLGGKAALTLSGAQPEDEAEYYCALWYSALWVFGGGTKLTVL
B16: huSP34.8.2 Fab-HF (Fab, V domains shown)
VH: EVQLVESGGGLVQPGGSLRLSCAASGFTFSDYAMNWVRQAPGKGLEWVGRTRSKYNNYATYYAASVKGRFTISRDDSKNSLYLQMNSLKTEDTAVYYCVRHGNFGHSYVSWFAVWGQGTLVTVSS
VL: QAVVTQEPSLTVSPGGTVTLTCGSSTGAVTTSNYANWVQQKPGQAPRGLIGGTSNRAPWTPARFSGSLLGGKAALTLSGAQPEDEAEYYCALWYSNLWVFGGGTKLTVL
B17: huSP34.9.5 Fab-HF (Fab, V domains shown)
VH: EVQLVESGGGLVQPGGSLRLSCAASGFTFSDYAMNWVRQAPGKGLEWVGRTRSKYNSYATYYAASVKGRFTISRDDSKNSLYLQMNSLKTEDTAVYYCVRHGNFGNSYVSWFAVWGQGTLVTVSS
VL: QAVVTQEPSLTVSPGGTVTLTCGSSTGAVTTGHYANWVQQKPGQAPRGLIGGTSNRAPWTPARFSGSLLGGKAALTLSGAQPEDEAEYYCALWYSARWVFGGGTKLTVL
B18: huSP34.6.5 Fab-HF (Fab, V domains shown)
VH: EVQLVESGGGLVQPGGSLRLSCAASGFTFSTYAMNWVRQAPGKGLEWVGRIRSKYNNYATYYADSVKGRFTISRDNSKNTLYLQMNSLRAEDTAMYYCVRHGNFGNSYVSWFAVWGQGTLVTVSS
VL: QAVVTQEPSLTVSPGGTVTLTCGSSTGAVTTGHYANWVQQKPGQAPRGLIGGTSNRAPWTPARFSGSLLGGKAALTLSGAQPEDEAEYYCALWYSARWVFGGGTKLTVL
B19: huSP34.10.5 Fab-HF (Fab, V domains shown)
VH: EVQLVESGGGLVQPGGSLRLSCAASGFTFSDYAMNWVRQAPGKGLEWVGRTRSKYNSYATYYAASVKGRFTISRDDSKNSLYLQMNSLKTEDTAVYYCVRHGNFGHSYVSWFAVWGQGTLVTVSS
VL: QAVVTQEPSLTVSPGGTVTLTCGSSTGAVTTGHYANWVQQKPGQAPRGLIGGTSNRAPWTPARFSGSLLGGKAALTLSGAQPEDEAEYYCALWYSARWVFGGGTKLTVL
B20: huSP34.8.4 Fab-HF (Fab, V domains shown)
VH: EVQLVESGGGLVQPGGSLRLSCAASGFTFSDYAMNWVRQAPGKGLEWVGRTRSKYNNYATYYAASVKGRFTISRDDSKNSLYLQMNSLKTEDTAVYYCVRHGNFGHSYVSWFAVWGQGTLVTVSS
VL: QAVVTQEPSLTVSPGGTVTLTCGSSTGAVTTSHYANWVQQKPGQAPRGLIGGTSKRAPWTPARFSGSLLGGKAALTLSGAQPEDEAEYYCALWYSALWVFGGGTKLTVL
B21: huSP34.9.4 Fab-HF (Fab, V domains shown)
VH: EVQLVESGGGLVQPGGSLRLSCAASGFTFSDYAMNWVRQAPGKGLEWVGRTRSKYNSYATYYAASVKGRFTISRDDSKNSLYLQMNSLKTEDTAVYYCVRHGNFGNSYVSWFAVWGQGTLVTVSS
VL: QAVVTQEPSLTVSPGGTVTLTCGSSTGAVTTSHYANWVQQKPGQAPRGLIGGTSKRAPWTPARFSGSLLGGKAALTLSGAQPEDEAEYYCALWYSALWVFGGGTKLTVL

What follows are binders tested against T1, CD3 expressed on cell-surface of primary human T cells (human, UniProt P07766 23-207; P04234 22-171) (assay: flow cytometry competition vs murine SP34-AF488 on human T cells, n = 1).
T1 construct: also called cell-surface CD3; human CD3
T1 sequence (P07766 23-207 limits assumed, chain 1 of 2): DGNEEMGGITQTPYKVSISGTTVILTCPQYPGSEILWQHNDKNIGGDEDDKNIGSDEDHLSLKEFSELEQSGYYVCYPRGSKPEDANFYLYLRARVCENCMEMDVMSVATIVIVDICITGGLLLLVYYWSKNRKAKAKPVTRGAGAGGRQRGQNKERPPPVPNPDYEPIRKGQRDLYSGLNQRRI
T1 sequence (P04234 22-171 limits assumed, chain 2 of 2): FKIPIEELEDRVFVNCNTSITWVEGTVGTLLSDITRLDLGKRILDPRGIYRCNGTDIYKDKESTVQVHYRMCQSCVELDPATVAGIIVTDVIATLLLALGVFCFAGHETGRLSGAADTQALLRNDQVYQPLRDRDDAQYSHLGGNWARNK
Protocol: Binding of humanized SP34 Fab variants to CD3 expressed on cell-surface of primary human T cells was evaluated in a flow cytometry-based competition assay.

IC50, > 20 µg/mL:
B1
B2
B3
B4
B5
B6
B7
B8
B9
B10
B11
B12
B13
B14
B15
B16
B17
B18
B19
B20
B21
